Laboratory results as given in the DeepSol protein solubility set.

Assay: soluble on expression in E. coli; label from the status in PepcDB or PDB records

Sequence | soluble on expression in E. coli
MGSDKIHHHHHHMTKSKNNPGRGNTIRESNTMKVMEEIREKIRKAIKEGVSLREIEEIILQEAMMEEREAYLEVEDDHKNGTYFRYLGTGDGVLRLRVPRTRKGGFRPKILPEKYERTSPDYEDFLQQLVLSGMTPSQVKAVLAAKGIPYSEIVMNRVAERISNKLKEYKSRELPHDLLALYIDVKIVKVRISESIMERAIYIAIGVDLEGNKFVLDYEVRDREDLDGWKSFLSGLVSRGVSRVDVIVSDDFSGLDRVVSTLFPSSQHQLCITHMVRNLMRVLPDKEKEELMIRVRDLKSSRNVEEGRKAILSLSQLVQPFSPARAKRLLDAADKYCSFLNFPREIRHYLYTNNTSESFNLTLARFEEELGGYFPSLRSLEVYLYVSIHESNSRWKFRPMSVIRHYSYHLKQLHASRFQVSLDEDF | not soluble
MGHHHHHHSHKELQRRRRSLALPGLQGCAELRQKLSLNFHSLCEQQPIGRRLFRDFLATVPTFRKAATFLEDVQNWELAEEGPTKDSALQGLVATCASAPAPGNPQPFLSQAVATKCQAATTEEERVAAVTLAKAEAMAFLQEQPFKDFVTSAFYDKFLQWKLFEMQPVSDKYFTEFRVLGKGGFGEVCAVQVKNTGKMYACKKLDK | soluble
MFQPVTQKRLTNVSVVRMRKGGKRFEIACYPNMVMAYREGHVRDLDEVIQVEDVFENVSKGKLAANADLERCFGTRDRHAVLLQILLHGDLQVSDRERQYQSTRKLHEIASVVAAKTISRETKKPLPVGLIEKALREIHFAVQPNRPAKAQALEVIPLLRAQSGLDLERARLRLRIHVPSQRDAKAVKARLEPLQQGETDGTHSSSRSDSVRMKDGSAAVESESEEWLPGGALLWTVQADPGAFREIEEIVQRETNQQGIVEVASLRVLDDEDESILS | not soluble
MPERLSRMSKKHKMVWGTLNGLDDWDYNVFELQAAIDGDDINCKNDQSGCGALFITMYALVVKYGFLRKFEINERIFLNWLSAVEGGYHANPYHNSMHAADVLHITHYLLSKGGLAELCKLNDRQVLAALFAAAIHDYNHPGINNNFSILTQTYNATLYNDRSVLENMHVASVFELMRNPALNILACFSEEHWRDFRNTVIDMVLATDMSLHEKYMTQFKRRLSEKRPFTEDCDQNLALAMALKLADISNCCRPLPLYLKWSERVSDEFYTQGDRERSLGMSCSPFMDRQTPMIAEGQTSFINYIFIPFLEVMAEFLPSMGFTLGLAAVCKSHRLVG | soluble
MTATLDDARAALDRIADPASGQGLVKAGLVQGLVVRNGRAGFMLEVPASVVASYAPVREAAEKALAALPGVEQAQVVLTAQAAEGATRVRKGAKISEDPQARMVPPPEAEKPQHVRHVIAVASGKGGVGKSTVSTNLAVAFAKMGLRVGLLDADIYGPSAPKMMGVDGDPLFENEKLQPLEAHGVKLMSIGFIVDEGKAMIWRGPMASSAVRQMIHDVAWGSEAQPLDVLVVDLPPGTGDVQLTLVQKLRIDGAVLVTTPQEIALIDARRAAAMFEKTATPILGLIENMAFFADPSTGAPIPIFGEGGGVAEAARLNVPLLGRVPIEIAVRLGGDQGVPAVIGEPKGQAAEVFIGAAKVLWKSVSHLEHHHHHH | soluble
KPTEPHQFAQQVLYDLDQQPRIIAQLSHQQPMLLYFWGTWCRYCQFTSAAVQQLANEKIPILTIALKSGDEQDISNNYLTQQKYTFPTINDPDGNIAKNWTIQATPTIIFIKDGKIVEYTTGLTSYWGLKSRLW | not soluble
MGSDKIHHHHHHMMDFYIKQIIIHQFSPNDTELVLSDTPLTLTPRIDDYFRKKLSKVFSDEAKRGYFGEDNVFMSHLQDDLYVSSCQIAQLWKEEFVISEDQKTNDLVFIQFDKDGMEHFAFLRISLKEQFAHVSENQEQPITITQNNLPSAAQTPDEALVVNKSSKQYYLIEKRIKHNGSFANYFSENLLQVQPEQSVKKSIKMVEQTAQKIAENFNKDDFSFQSKMKSAIYKNLEEEQELSPEKLADQLFDDNLTARLTFVDELKDAIPGPVQVSDIDHSRQIKKLENQKLSLSNGIELIVPNNVYQDAESVEFIQNPDGTYSILIKNIQDIQNK | not soluble
MKILLIGGSGNIGRAIAAELSGRHEIIAAGRHHGDVRVDIEDEQSIAAMYRQLPRLDAVAVATGGRNGHVGPLAEMNAERYRVGLDAKLMGQVNLVLRGLDKVADGGSFTLVGGAWQPQAIVPLLSNVYMANAALEGFVNAAAVELPRRLRINLVSPLLLAESEAEYGPLFRGVPLVEARQVARAYSLSIEGLEHHHHHH | not soluble
MCHSGTFHLTAGESVEWVLTWAPSFEPHPPMPDYTRSLESTLSFWASWVEELPHQRLYDAEVRRSMLVLRALTDLQTGGIVAAPTTSLPEDFGGIRNWDYRYVWLRDSALTIEALVEYGFSQAALQWRTWLLRAIAGDPENLRIMYGLGGERHLPERELQHLRGYENSVPVRVGNGAAEQYQADVVGEVMVALETIRRAGCLEDEFSWGMQKAILDFQEANFDRKDQGIWEMRSEPQYFTHGRAMMWAGFDRGIKAIEEFNLDGPIERWRELRAKLREEIMTNGFNEEIQSFTQCYDNTQVDASLLQLAQIGFIGFDDPKMLSTVARIEQELLDAHGFLHRYHTDGSDGLAGDEYPFLICSFWLVEQYASSNRLDEAKEKMNRILAVQSPLGLLAEEYSTHHGRLAGNYPQAFSHIGLISAARAINFEEARNRLEHHHHHH | soluble
MGEAAVAEGPCPLLEDSFTRFSSQSNVYGLAGGADGRGELLAATLKGKVLGFRYQDLRQKIRPVAKELQFNYIPVDAEIVSIDTFNKSPPKRGLVVGITFIKDSGDKGSPFLNIYCDYEPGSEYNLDSIAESCLNLELQFTPFQLCHAEVQVGDQLETVFLLSGNDPAIHLYKENEGLHQFEEQPVENLFPELTNLTSSVLWLDVHNLPGSSQRLSALGCQSGYVRVAHVDQKNQEILQTWTIQQDGPISRVIVFSLSASEATQDSPQQEGYSLLVASMLEPAVVYWDLLNKGLDDQLLLPGSDQFDSVLCGLVTDVDLDGQLEVLVATYGQELLCYKYRGLPEDSRGFRLLWRRSFASPLLAMAHVDLTGDGLRELAVISLKGVHILQHSLIQASELVLTRLRHQVEQRKHQQGLGDRVGPRPVEHPAS | soluble
MGSDKIHHHHHHMVKAVVLLSGGLDSATVLAIARQQGYECYALSVSYGQRHGAELAAAKNLARSLGATAHKIIQVDLSTFGGSALIDKEREIPTDGVTPGIPSTYVPARNTIMLSIALAWAEVLGSGDIFIGVNAIDYSGYPDCRPEYIEAFETMANVATKAGIEGTRLAIHAPLMNLSKAEIIKRGGVLGVDYSMTVSCYQADDAGLACGVCDSCRLRRAGFESADVPDVTRYHAGFRQTPAS | not soluble
MGSDKIHHHHHHMLVYIGNGHYCYSNSTAMFLSSIGENVSPQLVEILTGVGLGAMIEYEKNLYFSMRDPDDGINYALNILGFTAEEHQQASDLDDPFPLLKQQIKQNPVILGPLDMGELTYHPNHKNLNGSDHYVLGYQMDNENIYVQDPAGFPFVPLSLDQFKKAWMAERIPYRKGINKYWSTAKKVVTLDNNEIYERAIDYFKRTYRKFEKVDIGLIGREAICFYADQLLNAPITADTIRHTTFFLFQLSARRANDYAMYFKDRHSHLSVLKTEQAKVFGICHSMSVNKDWKGISEKLMKLADLEDNFRLELLKVGY | not soluble
MGSDKIHHHHHHMPTVERHIRGKWACDSCETLIQAPVPPQVIDKGIPTAGLLAQVLVAKYADHLPLYRQERMFGRAGLEIPRSTLAEWVGACGVQLQPLVDALRNTLLEHSVLHADETPVSMLAPGKKKTHKAYVWAYCTTPFADLKAAIYDFAPSRAGEHARTFLGDWRGKLVCDDYAGYKAGFGNGITEIGCMAHARRKFYDLHEANKSELAAKALEYIGGLYEIERETKDLPPDMRREIRQTKAKPLADALHQWMLAHRQKVPDGSGTAKALDYSLKRWEALTRYLDDGAVPIDNNWVENQIRPWALGRSNWLFAGSLRSGQRAAAVMTLIQSAKLNRHDPYAYLKDVLTRLPTQKNNAIDELLPHNWKPAIPNKV | not soluble
GPGSMNVDDFRTVIPSPVYVATRGERSGINVAVRALAPVTDVVFDMEEQFAVVCQRRRFSTYAISSWMESLDVPSIPGAAVPLVSVEPQGFSSLGFALSALQFLSSSLHVIAGYHRAPVVDIFDLENVDEETSEPQQRFNLTDVKENGNVEDGSSAYANDVMPMDRYVSLGALSSGLSVWLDSRSGKAEACTGVLTRQYTIGAHNRHTGRRDPLACVTSLCQGNPANILLGTEAGALQLWDVRCARECVAQHMTSASICRLHPSYSYPLRNVVWLNTLAGCVEAVSVGQSDMELLARRLCPDFQRSSSTFHLPPPRLSFMESSGVVACPHISSGKLLLYDGSSLVKQPNNSRTQLSSYNRGVDGKDNEYENGHCSNFGGFLREASSSSEESGEREIPLLNALPSEANALVTACTVWSNRDMFVLGDETGRVQLL | not soluble
MSNITIYHNPACGTSRNTLEMIRNSGTEPTIILYLENPPSRDELVKLIADMGISVRALLRKNVEPYEQLGLAEDKFTDDQLIDFMLQHPILINRPIVVTPLGTRLCRPSEVVLDILQDAQKGAFTKEDGEKVVDEAGKRLK | soluble
MGSDKIHHHHHHMYDVLIIGAGPAGSSLARLIGDKYKVLLIDKRDLANENPHNLAGKCCGGLLAPDAQKMIAKLGLGIPKDILVNPQLFAVRTIDLTNNLERLYQRFYLNMDREKFDRWLVSILPKKVDKKFNAVFKDFVEIPGGYEVKYIHNGQEISAKTRVIIGADGAFSKLRRFLNQDINGPEKYIAIQEWYECPHHVPYFTAIFDEEISDFYSWIIPKENYLLLGSALKPKEKAREKYELLKTKLTQRGFNFDNKIRTEGAYLYRPKKVSQFYAGRDSIALVGEAAGGISPSSAEGISYALKSSAYLAQSLEEGIDGFLDRYKLKVKGIKLNLLLKNLKSPAMYNPLLRQLAMKSGLQSIDRTE | not soluble
AIANDDRATAFNALKNKTVCVQGDGNSRQFYHALVEILSNHSSAIPVNKNGNDFCNAPFAQCPQDTYYFDLVDKSDNLSVKLYWRWAPEFSDIECPMKVPSGFTPGSNYSFPSGPDTLSCDINIMDAGQWELFEKDANVTTAGYSQGVSNLSKCFSSDKSAKYFWIAAYALTPEQLQIHLPYNNTDVERINEVATQGLNSTACVLNGYDVTVNAFNDTKEATTDGIHYLGWINEQVVHLFFNAVTNSSAPTVPSSNVSVTSPNVQLGQVPNLNPSTTNSFLPVQTIVTVPSSSATSASSGLNFGGSSQGGGSGIPQL | soluble
MAHHHHHHMSLAPNTGSVELKAYSAHASLLLARGERIDKRAFDECRLPAIVREERVGGATVAGAGDGSPQSSASSNMTSTYTVLDGKSLAAVMYTDAYGTCIQCTVQGLLGPPRPEQPAAGRLNVHVEAPFVEHLSGGATSTNYRSFQYMIASGNADLPLRQLEGYIGTVLDGCFDLSQLSIYAGEACWVLKVSVLLLSVDGGLRAGSLHAALAALHKLHLPRIRLPNGDVIEGRQVQLSCMPVACTFGFLAGAQVRLVADTTAIEEHVADGLITVVVDEAERILSVHHTGRCPLLAQALTAAAQQWAAASGSMRKALYG | not soluble
MFAIAHNSILRDSLAGILQLSPERVFDEYRPPPFTGNIVVGVEDLRDANLRFAVRYFLANVEKSISLFIVKQEWSENDEKFFDDLVKTEYRRAHDLNQVAIDRVNKLPDNEWKSDRLEQLNEWRTIPAINYSLLTLNDNLKNQIDALAKVTPCTISDDEEQITNKPPVLHWTADPLEGEIQFIAQLNFPLSGPDDSSFREICRLLKPHFETSYEWTGGILLTSDPVRLHVQRFNDTQIELAARICVDELEGDEADRPIRFIWPYLAVSLKQALQVLGEHPHLQYSISFVPFGSIFFKSSEIEARVFDATVFCSTALKYDKVGFRVGEDVHHVDIAHIFPDGTYPSLSRLLSMNPPSPRFSRPESVNDSVSPSLMSEPPTPGGLVAPHNRGRRVSFGTIKLMSDGPTTPEIPILNGNSNDGSAKTVDAFIDKMLQQTMDQLAV | not soluble
